The DeepSol protein solubility set

Test: soluble on expression in E. coli; label from the status in PepcDB or PDB records

Soluble on expression in E. coli, not soluble:
MGHHHHHHSHMETLSNASGTFAIRLLKILCQDNPSHNVFCSPVSISSALAMVLLGAKGNTATQMAQALSLNTEEDIHRAFQSLLTEVNKAGTQYLLRTANRLFGEKTCQFLSTFKESCLQFYHAELKELSFIRAAEESRKHINTWVSKKTEGKIEELLPGSSIDAETRLVLVNAIYFKGKWNEPFDETYTREMPFKINQEEQRPVQMMYQEATFKLAHVGEVRAQLLELPYARKELSLLVLLPDDGVELSTVEKSLTFEKLTAWTKPDCMKSTEVEVLLPKFKLQEDYDMESVLRHLGIVDAFQQGKADLSAMSAERDLCLSKFVHKSFVEVNEEGTEAAAASSCFVVAECCMESGPRFCADHPFLFFIRHNRANSILFCGRFSSP
MLDVKSQDISIPEAVVVLCTAPDEATAQDLAAKVLAEKLAACATLLPGATSLYYWEGKLEQEYEVQMILKTTVSHQQALIDCLKSHHPYQTPELLVLPVTHGDTDYLSWLNASLR
MSLIYPEKNREVLVQLMNQSKNASLIQAWIDDGNTTIAPEKIQVTFILTPPVSRVAGGSGQQLKIRKMPNNLPHNKESLFYLNVLDIPPNNPQNAGKNKIKLALQNRIKLLWRPSGIAPVDKKSLSQLNIKKKNNAISINNETANWITVTTIKAQNVKVNNESILLPPFSHNDITLKNNHASEYELTVVDDYGNNIHSKIAAREGHHHHHH

Soluble on expression in E. coli, soluble:
MGSSHHHHHHSSGLVPRGSHMSLYREVDAFRVDDERRRVPEKVVNDIEVRIRINGGMEQRFTASPQALEEFATGYLLGEGLVDSVDDIVSIEISDNIIDAEIESGDLDIRRELVMGSDCFGGWRQRVEMVGPVDSDLRVRADDIFLAFKRMVKSAVVWRMTGGTHVAALVTGDEFRVFEDVSRHVAVDKVIGSGAMDGVNFRESFIVYSGRMPADMLIKVVRAGVPIIASNAAPTSSGYDAAQRTGLTMLGFVRGKRFNIYSHPERII
KLKPFNDEKTAKIAEEVQQFYESNATISLNEYLENVGELGYELYLTDGAEKSTYYGGAFRKKDLPDKTIKQVLDGETYHGIDSFDTGIFITGFFDNDVRNTIGVPVQADGKQLALFIRQDPEKQFGELRIF
MSLTIRDIAAKAGVSVSTASRALNNNPRISQATRERIQALAEAEGYLPNYNAKNLTAGESNAVGVVFATADRSQPENPFFIDILRGINAQLVQRDYVLSVAISKTADELLKNVKAMVAQGKIKRFVLLYAHQDDPIAAFLRQHHLRFVTIGQPDDNANDYFVDNDNLEAGIGGATFLLNQLQVKHPVFVESTHDWAYEQQRRQGYERVAATFNVEPLTCRLGELNRVRAFIKRHPEIDGIMATDDFNGIEFYRLMREQYGINHFPMVSFNQSLPNGLTDADLHSVNLFPEKMGSATVALLFSDKEPLETPTPGQIKIPFEIKEGHHHHHH
MSLNKLCMYLERPELYKQSEINFWDDEYISKQLLKAHLDTNFEGASRNFNFIEDSVNWIVTVANPANYPKLLDLGCGPGLYAEKFAQKGYKVTGIDFSKRSINYAQNRNKETNLNINYLFQSYLNMNYNEEFDLATLIYCDYGALSTENRRLLMEKIYDSLKPGGKLILDVFTINKYNNFEEIKYWEINEDGGFWSNEKYMCLQDNCKYNDYNTLEQTLVITEKDENVFYVWNHYFSKESFLLEVENIGFKSVEFFSNVKGEAYSDDSMTMGLVLQKEGHHHHHH
MDHHHHHHHHASENLYFQGHMNLDLAYRSFVLGVAGHPQVERLIKHRAKGLVRRYVAGETLEEALKAAEALEREGVHAILDLLGEMVRTEEEARAFQRGLLELVWALAGKPWPKYISLKLTQLGLDLSEDLALALLREVLREAEPRGVFVRLDMEDSPRVEATLRLYRALREEGFSQVGIVLQSYLYRTEKDLLDLLPYRPNLRLVKGAYREPKEVAFPDKRLIDAEYLHLGKLALKEGLYVAFATHDPRIIAELKRYTEAMGIPRSRFEFQFLYGVRPEEQRRLAREGYTVRAYVPYGRDWYPYLTRRIAERPENLLLVLRSLVSG
MFKRETKDFINIDPLQTGGKLTEEARQALLEWGDGYSVCDFCTTGRLDEIKTPPIHDFIHNQLPKFLGCDVARVTNGAREAKFAVMHSLAKKDAWVVMDENCHYSSYVAAERAGLNIALVPKTDYPDYAITPENFAQTIEETKKRGEVVLALITYPDGNYGNLPDVKKIAKVCSEYDVPLLVNGAYAIGRMPVSLKEIGADFIVGSGHKSMAASGPIGVMGMKEEWAEIVLRRSEKYKNKEVELLGCTARGATIITLMASFPHVRERIKRWDEEVEKARRFAAEMEKLGIKQLGDNPHNHDLMFFHAEVLYEISKKAKGGRFFLYRELKSRKIHGIKPGLTRYFKLSTYGLSDEEVDYVLNAFKEIIEKYS
